This passage reports protein production results from a protein production outcome set (Wang et al. 2014).

The nature of this series: label from the status in PepcDB records.
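Further: failed if final PepcDB status was selected cloned or expressed and not failed if soluble or beyond.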

Regarding “MISSKNGAAMISRPVFLSDRVDEVFSRKLDLSVSSSSSSSLLQQFNKTHEGDDDARLALAHQLYKGGDFKQALEHSNMVYQRNPLRTDNLLLIGAIYYQLQEYDMCIARNEEALRIQPQFAECYGNMANAWKEKGDTDRAIRYYLIAIELRPNFADAWSNLASAYMRKGRLSEATQCCQQALSLNPLLVDAHSNLGNLMKAQGLIHEAYSCYLEAVRIQPTFAIAWSNLAGLFMESGDLNRALQYYKEAVKLKPAFPDAYLNLGNVYKALGRPTEAIMCYQHALQMRPNSAMAFGNIASIYYEQGQLDLAIRHYKQALSRDPRFLEAYNNLGNALKDIGRVDEAVRCYNQCLALQPNHPQAMANLGNIYMEWNMMGPASSLFKATLAVTTGLSAPFNNLAIIYKQQGNYSDAISCYNEVLRIDPLAADALVNRGNTYKEIGRVTEAIQDYMHAINFRPTMAEAHANLASAYKDSGHVEAAITSYKQALLLRPDFPEATCNLLHTLQCVCCWEDRSKMFAEVESIIRRQINMSVLPSVQPFHAIAYPIDPILALEISRKYAAHCSIIASRFGLPPFTHPAGLPVKREGGFKRLRIGYVSSDFGNHPLSHLMGSVFGMHNRENVEVFCYALSANDNTEWRQRIQSEAEHFLDVSAMSSDAIAKIINQDKIQILINLNGYTKGARNEIFAMQPAPIQVSYMGFPGTTGATYIDYLVTDEFVSPLQYAHIYSEKLVHLPHCYFVNDYKQKNQDVLDPNSKPKRSDYGLPEDKFIFACFNQLYKMDPEIVNTWCNILKRVPNSALWLLRFPAAGEMRFRTYAAAQGVQPDQIIFTDVAMKSEHIRRSVLADVILDTPLCNGHTTGTDVLWAGVPMITLPLEKMATRVAGSLCLATGLGHGMIVNSLEEYEEKAVSLALNKPKLQALTKELRASRLTCPLFDTMRWVKNLERSYFKMWNLHCSGQQPQHFKVLENDLEFPHDR”, the protein production entry was “failed”. Consider “MISYIQTKIHHINFLHDSLFKNAFFLMLSSISTAGFGFIFWFLAAKFYSASDVGIATGIMSSMTLIVNLSRFGLDYSIIRFFPTHDKCKVFSTSTVISTLIALIFGLIFISGINSFSPELSFLRSPLYTLFYFISLTSSSVIFMAGIFFVAIREAEFQLYLNLIVGSRVLFVILFISLGAIGIFYAVGASFFIAFLISLVLILKSGTDLKLKIDRKFLTDSFNFSAGNFLTGLFMTVPNTLLPIMILNMHLVEQAAYYYIVFGIVSLLFMIPESISTSLFVEGSNGQSLKKTVIQSLVIIFLLLTPIALFFYLYGSLILGFIGQDYVAGGSGVFRLMIFASFFVVVNNVYFAIKRIQKDTKEITLLSGIIFILLIGLAFLLIPVLGIEGIGYAWIISYGTGALIILIQVFRKARFQNLLIKAM”, for which the protein production result was “failed”.

For “MITAFVLIRPRGNRVQALGEAIAELPQVAEVYSVTGPYDLVALVRLKDVEELDDVVTQGILSLEGVERTETLLAFRAYPRRLLDQGFALGQG”, the protein production result is on record as “not failed”. The value for “MITFIIHSVSAETASESLLSKLAEAKDYLRIQPSVSSRILKKHLANIGQLTINDQLSWHQNLLRASIALNDLNQVEKTVKVMLSYPELEKKTDKFVSLLSSLGIFLRRTGHPNESILLFNCGLEQPIKNGKQKISLLISKGSSLSSLNKYSQAKTTYAQALQLAKQQNSEVLISAIYNTLGIMALKQGNYTLAKEYLVNALQLSQKISRRSGQIVAGLQLLRLSILSDEPMLYDRLHYRISRLTLVSESEVRHAYLFWLEKAHKASKGNKLSAQEQDELLSKLDQIKPISVSLYNQLVETLAEPMGITSLALINESSEYQGDLLNNIHQCKNIE” was “failed”. Consider “MITNAFNEYKNEYAFDNVYGHLIEILKRNLDISTESGVVHLDIGCGYGAIAEHITGEVGRVYVGIDANKSGLKSLKDRGFETHEHFLESQEDALSFFERVIGDRKLGSISMLDTLEHLPNGLSILKAIATLASKHSAMVAISVPNIQHRDIGFKLALGSIAYTDAGLLDHTHVMMYDYDHLDRVLRHAGLRICDQNHVRVNHSDQFFPRDHPVLQNATTIRTFLKYVRANVNDQDQINQFVVAALPCEPITGPTFEAVRDVDRPFLSIVTRTQGKRIHTLVEYFTCLAGQVCRDFEVFVVGHRLSLERQIAIEQVIEDLPLWLRDKTKLIRVDHGNRTHPLNVGFAQANGRYIAIHDDDDIPMGHWVDSFRKLAIENDGALLRCVSSLQHVETVSLRGRDGVRSIGKTGPFPSEFDFIQHLSGNYSPNNTLAFPRGVFHHLNMRFDENLTTTEDWDYIMRVASVVGVASSPEITGTYQWWEKGNSLAMHTDNEWALNKAWIQEKLDARPILIPAGTVRKILSLWEHANNVATQLDAVSHRNAIIEGQLGAMSQYDIDVQAQMKAISDHVNFLKSEIDRNRNEAVDQQYLLREIGDIIDSTSWKLSAPMRWPKRILGARSSRLTDHLGSSVQQLQETKRRLLSSRSWRATRPMRAVARLFKVHPI”, for which the protein production result is “failed”.

Turning to “MITQRQNDILNLIVELFTQTHEPVGSKALQRTIDSSSATIRNDMAKLEKLGLLEKAHTSSGRMPSPAGFKYFVEHSLRLDSIDEQDIYHVIKAFDFEAFKLEDMLQKASHILSEMTGYTSVILDVEPARQRLTGFDVVQLSNHDALAVMTLDESKPVTVQFAIPRNFLTRDLIAFKAIVEERLLDGSVMDIHYKLRTEIPQIVQKYFVTTDNVLQLFDYVFSELFLETVFVAGKVNSLTYSDLSTYQFLDNEQQVAISLRQSLKEGEMASVQVADSQEAALADVSVLTHKFLIPYRGFGLLSLIGPIDMDYRRSVSLVNIIGKVLAAKLGDYYRYLNSNHYEVH”, the protein production entry is recorded as “failed”. With “MITQVNQLDELQLKDLKTLRAECKKNDGSIPNLYIHILKQHRSLPTSFLYYQNGALIGFLSIYFFYDDAVEVAVLVSPQYRRQGIAKQLIKEALPLIKSQNYFNLIFSCPSRLNDNWLTSKGFTYLHSEYFMERDDLNPILDYIR”, the protein production result is given as “not failed”. For the sequence “MITRLVLATAGAAVALGLPADVRAYEYEQEATTKLMTDMIVDLGGHDTVRRNSGKTVRCGDGGTRRVSIVRRGATTTYRGDYRNCRERGLTRDGFYEIVFKGDEIVSSTSKRSVNGELFDAAMAGNAAGVRKLIRARADVNYTESVDRTEGGTIDGVSPLMVATMAGSLDTVKLLVANGAWVNYLNSMAVNALWIAAHNGHPEIVRYLAGRGAYLNNSNVEDVTPLMAAAMNGHLAVVKFLVGAKADINAVHRDGDTALMFALAQNRTDIARFLIDAGADVAVRNRHGVTALLIAVAEGNEEIVRALLERKADVSVRTADGKSALDVARARGMDGIAKLLEAAGSY”, the protein production entry is reported as “failed”.

Take “MIVASRSPLPLAPPMLFPASDDDVPFDDAPRILLFTGKGGTGKTTCAAATAQHAARQGHKTLVLSSDPAHSLADALDQELGPEAREVRDRLFAQEVDLYYSMKKHWGHMRELMLTVFRWQGVDQIAAEELAALPGMNEGSVLLWLEEALREADYDLIVVDSAPTGETLTLLTLPQVTQWWLAKAFPFQKMAVKSLGFGVRKATGIPLDKGYEELEVIFEKLERVQQVLATPSTTSIRLVTNPEKMVIEEARRAFTYLQLYGYGVDSVVVNRVLPEEEVPADSFFEGYVESQREYLEEIEQSFRPLPILQVPHLGEEVFGAERLGRIGDAMYAERNPTDVFYDEPTFTVEEDGDAYVLNLRLAFATEADVDVRQLGDQLVVQVANQRSNVILPNFLNYYHMTNAALEEGWLRVRFTPDGEASSN”: the protein production result is “failed”. The value for “MIVAVESLDTSKKRKLHAEESDLLPLPKHFCSEHQASLVNSSCPSSVIDYAECSYAMENTKTSDEASSSASFTGPSLYMFKDSIYSTGSSSSGYAATSSIEQCFSKVDHKTQEDTQDFTHMEFIYHDSEFAVEDLQEVLNPVESYILSSARWSVSNQDSKEATTKPTIDQEFEQYFSTLMM” was “failed”. The value for “MIVFKAENLSVGYNGVKAVSNINFSAKQGEIICLLGPNGAGKTTIIRTLSGLLPPIEGEIHINGKSLSTINKKLLAQTLSVVLTEKPSFDVMTAFDVVSLGRFPHTGFFGTITKEHEIKVVEALKTVGALNLIDKYFHILSDGERQKVMLARALVQEPQIIILDEPTTHLDINHKIELLNTLKNLSRTAKLTVILSLHEIDLALKYCDKVMLVENKKVLSFGSPETTVNGETINKLYGIKNASFNPITSSIELKNSEKSNIYVIGGCGFGTPIYRLLSKYNLGFSTGILHENDIDYETAKTMSLRLQSEKPFQKISKISFEKALAAVASSDIIIDSGFPIGETNEKNLNLLNYAVEKNKRVITFRKYFNSTMSYCSNKDALIDFILRLEHHHHHH” was “failed”.
